Measurements taken from publication PMC6900781, “Reconstituting Drosophila Centromere Identity in Human Cells” (Cell Reports, 2019).

B2: recombinant His-dCENP-C(1264-1411) (domain or fragment, Drosophila melanogaster, UniProt Q9VHP9 1264-1411, looked up)
chain: GPVVFSTPLRDEQEEASTKLMQWLRGVGDAPPSASMSDENASVSSANELIFCQVDGIDYAFYNTKEKAMLGYMRFKPYQKRSMKQAKVHPLKLLVQFGEFNVETLAVGEEKEVHSVLRVGDMIEIDRGTRYSIQNAIDKVSVLMCIRS
notes: dimer by SEC-MALS; source: recombinant, T7-promoter vector; not shown: His, N-terminal, kept

How the values were obtained:
dCENP-A^C-GFP-LacI = biological target: T1, dCENP-A^C-GFP-LacI (Drosophila melanogaster, UniProt Q9V6Q2 1-202; P02299 116-136); assay: LacI/LacO tethering and recruitment assay (immunofluorescence); bait fused to GFP-LacI tethered to chromosomal LacO arrays in human U2OS cells; HA- or V5-tagged prey transiently co-expressed; IF 48 h after transfection, prey intensity at the LacO spot or % of cells; no third Drosophila centromere protein co-expressed; conditions: partners not purified
T1 construct: Drosophila CENP-A, N, L1 and α2 domains, residues 1-202; Drosophila histone H3, C region, residues 116-136; also called dCENP-A^C chimera; source: U2OS-LacO cells, transiently transfected, in cells; not shown: GFP-LacI (LacI lacking 11 C-terminal amino acids), C-terminal, kept
T1 sequence (Q9V6Q2 other isoform, or with tags, fused parts or gaps): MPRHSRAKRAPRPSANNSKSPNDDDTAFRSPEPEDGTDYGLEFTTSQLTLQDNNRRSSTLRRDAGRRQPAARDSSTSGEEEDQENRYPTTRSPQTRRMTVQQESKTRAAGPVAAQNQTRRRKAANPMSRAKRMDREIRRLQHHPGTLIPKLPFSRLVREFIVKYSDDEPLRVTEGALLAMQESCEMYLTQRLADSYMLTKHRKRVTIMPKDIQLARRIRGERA

[1] = biological target: the molecule itself; assay: SEC-MALS; recombinant proteins; Superdex 200 10/300 Increase GL, 50 mM HEPES pH 8.0, 150 or 300 mM NaCl, 1 mM TCEP, 22°C, 100 μl of 1-5 mg/ml
[2] = biological target: B2; assay: as above; conditions: both partners purified
[3] = biological target: B2; assay: mass spectrometry (iBAQ peptide intensities) of the complex; ratio of iBAQ intensities of the two fragments within the recombinant His-dCENP-C(1264-1411)/CAL1(841-979) complex; conditions: both partners purified
recombinant dH4 = biological target: T2, recombinant dH4 (Drosophila melanogaster, UniProt P84040 1-103); assay: SEC-MALS; recombinant proteins; Superdex 200 10/300 Increase GL, 50 mM HEPES pH 8.0, 150 or 300 mM NaCl, 1 mM TCEP, 22°C, 100 μl of 1-5 mg/ml; conditions: both partners purified
T2 construct: Drosophila histone H4 (dH4); source: recombinant, T7-promoter vector pET3a (from Karolin Luger)

recombinant CAL1(1-160) = biological target: T3, recombinant CAL1(1-160) (Drosophila melanogaster, UniProt Q9VEN2 1-160); assay: as above; conditions: both partners purified
T3 construct: CAL1, residues 1-160; the vector name points to a 3C protease site; monomer by SEC-MALS; also called monomeric N-terminal fragment of CAL1; source: recombinant, T7-promoter vector pEC-K-3C-His-GST
T3 sequence (looked up): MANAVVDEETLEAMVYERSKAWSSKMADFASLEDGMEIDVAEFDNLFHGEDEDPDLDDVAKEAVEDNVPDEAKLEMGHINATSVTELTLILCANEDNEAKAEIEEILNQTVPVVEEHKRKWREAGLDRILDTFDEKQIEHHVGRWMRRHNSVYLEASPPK

B1: CAL1-V5 (natural protein, Drosophila melanogaster, UniProt Q9VEN2 1-979, looked up)
chain: MANAVVDEETLEAMVYERSKAWSSKMADFASLEDGMEIDVAEFDNLFHGEDEDPDLDDVAKEAVEDNVPDEAKLEMGHINATSVTELTLILCANEDNEAKAEIEEILNQTVPVVEEHKRKWREAGLDRILDTFDEKQIEHHVGRWMRRHNSVYLEASPPKYLPPHHNSISDESDESMHSIDTARYIQQSRRRNAHMTNKNMTTIKMYRKHSHKRDELRAKYAYGDEQEHRHHMQAVLLRRRERERQLAYLASTPMQCVYSSGHHMRRKNLRKRRINSWMFDSASSSEEDTSFGGCDCHSCRRHYALSRSVYQSCPYGRGQREYHHRQMASRTMHTMRRQHTFDMEMDLRPRLPENECSCCNSDRLCSNVIHIANSSTEEWVVENRSNHLTQETQEKTRKQKHQPMDARKVSHQPVCSKGHEQKPLSSKATSVSKLVLSKEKYMQMFDSESSDEDNALAKKGLLCCSDKKKGMTFPTPNAAGKITHPTSSAKKAIRKEARPNGLAQIQEEGPTATNSPIESTYLPVAHMKSVSIDGSSGTSATFESPAKKAPKRGIRETSPLNGNELQQLISTIPIADEKASSLMEKVDNCIGRESFDDRNKDFMHMENSSTKTAVEKSTKQKRVSGKKSEIPKSIITNNEILEKNSTETLSEKQVAAKAKKQSVRKTGATGKPSTSRLKKSEKTKTTSSVTSTSKLEQVREEESDVSSEVLAKPKPQCSTTASILKQGGDGASNSEDDLQIALAMSKATYKEEQQKRKKTKREPSNKQPQSPAEKSMTVFNNQSVACNSTALANDTACYRVLPKRRGVKRAAAVSTTEEKTATNSSSSPTSSLEEMGSPTGGDPDCTVVTSTTGCEPPASERQEIPATIKITKRGILLHSPSAPEGASFTLTEQGLGKIIGERWARKYLKYHIGSRSFDSRHSVYYQPTPQLAAALSAPQDAQNIGNISGSSASDDDIFEQINRYGTVYSILENNSGDK
notes: CAL1, Drosophila dCENP-A-specific chaperone; also called V5-tagged CAL1; source: U2OS-LacO cells, transiently transfected, in cells; not shown: V5, C-terminal, kept
dCENP-A^C-GFP-LacI
  CAL1 recruitment relative to wild-type dCENP-A: 60%

## B2
[1]
  stoichiometry N: 2

B3: recombinant CAL1(841-979) (domain or fragment, Drosophila melanogaster, UniProt Q9VEN2 841-979, looked up)
chain: GGDPDCTVVTSTTGCEPPASERQEIPATIKITKRGILLHSPSAPEGASFTLTEQGLGKIIGERWARKYLKYHIGSRSFDSRHSVYYQPTPQLAAALSAPQDAQNIGNISGSSASDDDIFEQINRYGTVYSILENNSGDK
notes: also called CAL1 monomer fragment; source: recombinant, vector pEC-K-3C-His-GST
[2]
  stoichiometry N: 0.5 CAL1 chains per dCENP-C chain
[3]
  stoichiometry N: ~0.5 CAL1 chains per dCENP-C chain

B4: recombinant dCENP-A(101-225) (domain or fragment, Drosophila melanogaster, UniProt Q9V6Q2 101-225, looked up)
chain: QQESKTRAAGPVAAQNQTRRRKAANPMSRAKRMDREIRRLQHHPGTLIPKLPFSRLVREFIVKYSDDEPLRVTEGALLAMQESCEMYLTQRLADSYMLTKHRNRVTLEVRDMALMAYICDRGRQF
notes: also called dCENP-A lacking the N-terminal tail; source: recombinant, T7-promoter vector pET3a
Recombinant dH4
  binding result: binds
Recombinant CAL1(1-160)
  binding result: binds
